Reference: a protein production outcome set (Wang et al. 2014)

assay: label from the status in PepcDB records

Protein production, failed:
MNSASTTVPTDLTNERLPSGRLLALGLQHVLVMYAGTVAVPLIVGGALKLPKDQLAFLINADLFAAGLATLIQAFGFWKFGIRMPVMMGVTFASVAPMIAIGNDPNVGLLGIYGAVIASGIFGILIAPMMGRMLGLFPPVVTGTVITLIGVSLMRVGINWAGGGQPTTRAVIDGVAKEVPNLAYGDLSNLAIAGLVLAVILLLSKYGRGLVANCAVLLGIIIGTLVAMALGKVSFEGLNEASYVAVITPLHFGIPKFELTAILSMCIVMLITLVESTGMFLALSDITGRKLSRDDLTAGLRADGLGTVIGGIFNTFPYTSFSQNVGLVTVTGVRSRYVAAAGGLILIAFGLFPKMAHVVASVPQFVLGGAGIVMFGMVAATGIRILGSCDFNRNRHNLFIVAISIGFGMIPTLSPTLFQYLPKWTDPFTHSGIVLGTIVAVALNLFFNGIQSAEEAMRNAAANSHGTE
MNSCILQATVVEAPQLRYTQDNQTPVAEMVVQFPGLSSKDAPARLKVVGWGAVAQELQDRCRLNDEVVLEGRLRINSLLKPDGNREKQTELTVTRVHHLTLDSATGILAQEESEVSYGRSAAASAPVKASPVVTPTAAPDVDYDDIPF
MNSEVDTLFAQAYKLQYEGHLPQAISLYEQILAQSPKHTETLHFLGLTYAQLGDMENAILYFLQARKINPNDVGILNNLANAYKKAGQLDEAIKYYQQAIEIKPEYVQAHNNLAATYALLNNYQKALHHYVIAVNTEPDFSAAHFNLGLLLLKNQQLSAAKTQFNNVIALNPQHREAQFYLGILHLEDNLLSEAEQAFHKVLEQDHEHVQSLINLGVIALKREQNQLAVDYFTKALALDNEDIDARNNLAATFMHHDRFENALMHYDVLLKKEPDNLEYLYNSGVAQMALGHLNEATLLFDQILTLQSDHTPSLNNLAAIYLKMDMRETAREYLERALAINPDDVISRHMLNAITGATSVNTTEKYAQNLFNNYALYYDQHMQGELHYKIPHHIGRLIHQLQLLQTSHSLDLGCGTGLTGIVLREISKHLTGVDIAEKMIARAKEKNIYDLLVCSELIDFLRKDKNDYDLAVAADVLPYFGNLDDIFNSINQHLKQEGYFIFTTEISTTTPWKLESSARFSHQPEYIESLINKYQFHLIKQEKIPGRTQNKQVLEVMLYCIQKSTSCFVSN
MNSHFLTNDLILEVLSRLPLKSVARFHCVSKRWASMFGSPYFKELFLTRSSAKPRLLFAIVQNGVWRFFSSPRLEKSSSTLVATAEFHMKLSPNNLRIYHDNTPRYFSIGYASGLIYLYGDRYEATPLICNPNTGRYTILPKCYTYRKAFSFFGFDPIDKQYKALSMIYPSGPGHSKILTFGDGDMNWKKIKYRVLHDIYSQGICINGVLYYLGDTSDWDNDHDVTSGNVLVCFDLRSESFTFIGLECGQLINYKGKLAVIFWDDVDDDDVKDDAIDEMHVWVLEDVEKKEWSKYAYTWTEDKLYRSQVSVVGMTASGEIVFSMRKYTSEQPFYVYYFNPERNNLRRVEIQGFEAFTKFGTVYTFVDHVEDLNVYNLKHFKSVHPPSVQPEYDESDSESEEDREIII
MNSIEKELDCGRSVTDQQKIEEVTRQITEHGNELRRRYPVLNYQNALGASAMAVSVTVMVVTGVLYVKGIMPAWLCILVNALSTSIIHELEHDLIHRLYFRKQPLAHNFMMLLCWLTRPGMPSPWLRRGLHFHHHKESGTATDVEAWITTSGNPWGILRLLKLMDGFLFGFVNAVCAPGWRQKMKLLARIIRLNTPFGLLYWGSWYVFLGYHLSTWLGGLAGVPPPSSPLMLQVMNMIDCVVVIVVAPNMIRQFCLYFISSNMHYYGDVAPRNALQQTQVMNHWLLWPFQLFCFNFGSTHSIHHFVVKDPFYLRQMTAPYAHEVMAKAGVRFNDFGTYKRANRFKLDTVQFQSRG
MNSLPSPHPPLSPAVPVASRAALRLAELGVFVLTALVVNMPSGLLPFGVCLLGGTLLGWRSLRAGLATQGWSLRVLTGLTAVVIAMSVLSIVLFEPSVRDVENRSRFLVLPWAALWAYALQPRQVWLWRGALAGVFAAMLVAILQVMNGAERAEGWTNAIVFADIALMLLVVAIFCRPNGQVRWLLGAAVAAVAVIVLSGSRGVWLSLLVTLGVLVWGAPWQSARMRLLAFVGGAVVCVGLVLSVPGLTEQLRIGELQSDFQRYEVGDADSSAGARIERLHVAWDTLQAHPLTGVGVGRFDDAMRELPLCAGDTWLLRCHLGHAHNDLAEWGATQGIPGLLLLIAVYGVPLWMFVRLHRRSGQRQFRGPAAAGVMIVISYALCGLTQSMFAHQVSASFYAAMVGILAGLAARQAQQHATAASPLAQSAR
